Data from patent US20200308299A1, “ANTI-GPC-1 ANTIBODY” (National University Corporation Kochi University, priority 2017, published 2020).

How the values were obtained:
[1] = tested on: TE14 cells; test: ADC assay combining anti-GPC-1 antibody and MMAF binding secondary antibody, TE14 cells; type: cell-based; settings: primary antibody plus MMAF secondary antibody
Experimental: FIG. 1 depicts a schematic diagram of an ADC used in an assay. This Example used a secondary antibody (MORADEC) to the anti-GPC1 antibody made in Example 1, to which an anticancer agent (MMAF) was bound via a linker.
2000 TE14 cells were added to a 96-well plate at 80 μl. The cells were cultured overnight at 37° C. in a 5% CO2 incubator. The next day, 10 μl of an anticancer agent bound secondary antibody and 10 μl of a primary antibody concentrated 10-fold relative to the final concentration was added to each well, so that the total amount was 100 μl. The cells were cultured for 6 days at 37° C. in a 5% CO2 incubator. The cell viability was measured by using a CellTiter-Glo Luminescent Cell Viability Assay reagent to detect the amount of ATP. RPMI1640+10% FBS+1% PS was used as the medium. The final concentrations of the primary antibody were 0, 0.004, 0.0156, 0.0625, 0.25, and 1.0 nM. 2 μg/ml of Fab-aMFc-CL-MMAF (model number: AM202AF-50, Moradec) was used as the secondary antibody.

[2] = tested on: DU145 cells; test: ADC assay combining anti-GPC-1 antibody and MMAF binding secondary antibody in DU145 cells; type: cell-based; settings: primary antibody plus MMAF secondary antibody, 3 days
Experimental: 2000 DU145 cells were added to a 96-well plate at 80 μl. The cells were cultured overnight at 37° C. in a 5% CO2 incubator. The next day, 10 μl each of anticancer agent binding secondary antibody (2 μg/ml) and primary antibody concentrated 10-fold relative to the final concentration was added to each well, so that the total amount was 100 μl. The cells were cultured for 3 days at 37° C. in a 5% CO2 incubator. The cell viability was measured by using a CellTiter-Glo Luminescent Cell Viability Assay reagent to detect the amount of ATP. RPMI1640+10% FBS+1% PS was used as the medium. The final concentrations of the primary antibodies were […]. 2 μg/ml of Fab-aMFc-CL-MMAF (model number AM202AF-50, Moradec) was used as the secondary antibody. The EC50 value was analyzed with GraphPad Prism 6. The same experiment was conducted using 4000 MDA-MB231 cells as the control.

B1: clone 01a017: anti-human Glypican-1 antibody, heavy chain SEQ ID NO: 138, light chain SEQ ID NO: 140 (antibody)
heavy: MKHLWFFLLLVAAPRWVLSEVQLQQSGGELVRPGTSVKMSCKAAGYTFTNYWIGWVKQRPGHGLEWIGDLYPGGGYTHYNEKFKGKATLTADTSSSTAYMQLSSLTSEDSAIYYCARERVYFDGSRYFDVWGAGTTVTVSSAKTTAPSVYPLAPVCGDTTGSSVTLGCLVKGYFPEPVTLTWNSGSLSSGVHTFPAVLQSDLYTLSSSVTVTSSTWPSQSITCNVAHPASSTKVDKKIEPRGPTIKPCPPCKCPAPNLLGGPSVFIFPPKIKDVLMISLSPIVTCVVVDVSEDDPDVQISWFVNNVEVHTAQTQTHREDYNSTLRVVSALPIQHQDWMSGKEFKCKVNNKDLPAPIERTISKPKGSVRAPQVYVLPPPEEEMTKKQVTLTCMVTDFMPEDIYVEWTNNGKTELNYKNTEPVLDSDGSYFMYSKLRVEKKNWVERNSYSCSVVHEGLHNHHTTKSFSRTPGK
light: MRLLAQLLGLLMLWVPGSSGSIVMTQTPKFLPVSAGDRVTMTCKASQSVGNNVAWYQQKPGQSPKLLIYYASNRYTGVPDRFTGSGSGTDFTFTISSVQVEDLAVYFCQQHYSSPWTFGGGTKLEIKRADAAPTVSIFPPSSEQLTSGGASVVCFLNNFYPKDINVKWKIDGSERQNGVLNSWTDQDSKDSTYSMSSTLTLTKDEYERHNSYTCEATHKTSTSPIVKSFNRNEC
- EC50 values against TE14 cells [1]: excellent EC50 values
- EC50 values against DU145 cells [2]: excellent EC50 values
